In patent publication US9012420B2, “Aptamer for chymase, and use thereof” (Ribomic Inc., priority 2009, dated 2015):
Oligonucleotides are written 5' to 3', each unit as a sugar letter and its base; * is a phosphorothioate linkage, no mark a phosphodiester; rarer units and linkages stand in square brackets, end groups in braces. Plain capitals give the bases only. r = 2'-OH (RNA); f = 2'-fluoro

Tests used:
chymase [1] = target: T1, chymase (Homo sapiens, UniProt P23946); experiment: Surface plasmon resonance (Biacore T100), aptamer immobilized on SA chip, chymase injected as analyte; type: binding; settings: Table 1; about 1000 RU nucleic acid immobilized, chymase 0.2 μM analyte, running buffer solution A; compared with 40N
T1 sequence (P23946 22-247): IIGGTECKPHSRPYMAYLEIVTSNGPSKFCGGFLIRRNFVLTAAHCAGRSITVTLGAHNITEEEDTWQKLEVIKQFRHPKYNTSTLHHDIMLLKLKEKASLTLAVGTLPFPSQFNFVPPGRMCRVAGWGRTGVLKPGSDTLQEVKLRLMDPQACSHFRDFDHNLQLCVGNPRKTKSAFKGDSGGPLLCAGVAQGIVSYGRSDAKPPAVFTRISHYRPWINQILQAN
Description: (§1) Binding strength is measured using Biacore T100 (manufactured by GE Healthcare). In a method of measurement, the aptamer is first immobilized onto a sensor chip, the amount immobilized being about 1000 RU. 20 μL of a chymase solution for analyte, prepared at 0.2 μM, is injected, and the binding of chymase to the aptamer is detected. An RNA comprising a random nucleotide sequence of 30 or 40 nucleotides is used as a negative control.
(§2) The binding activities against chymase of the nucleic acids shown by SEQ ID NO: 4-20 and 22-34 were determined by the surface plasmon resonance method using Biacore T100 (manufactured by GE Healthcare). The sensor chip used was the SA chip, which had streptavidin immobilized thereon. Bound thereto was about 1500 RU of a 16-nucleotide Poly dT with biotin bound to the 5′ end thereof. […] 20 μL of chymase for analyte, prepared at 0.2 μM, was injected. Solution A was used as a running buffer.
(§3) The binding activities against chymase of the nucleic acids shown by SEQ ID NO: 38-48 were evaluated by the surface plasmon resonance method. In the evaluations for SEQ ID NO: 38-48, measurements were taken in the same manner as Example 1. Solution C was used as a running buffer.

chymase (recombinant) [2] = target: T2, chymase (recombinant) (UniProt P23946 P23946:22-247); experiment: inhibition; SPR ++ (Table 2); settings: tags: SIGMA, expressed in yeast
T2 sequence: T1 sequence (P23946 22-247)
Description: (§4) Here, Suc is a protecting succinyl group, and MCA is a 4-methylcoumaryl-7-amide group; upon cleavage of the C-terminal side of phenylalanine, AMC (7-amino-4-methyl-coumarine) is released. By detecting the fluorescence of this AMC, the enzyme activity of chymase can be determined. The assay was performed using a 96-well plate (F16 Black Maxisorp Fluoronunc, manufactured by Nunc), with a reaction mixture volume of 100 μL, in solution C as a buffer solution. First, each nucleic acid was serially diluted to 0.0027-2 μM concentrations in solution C to obtain 50 μL solutions. After 10 μL of the 1 mM substrate prepared in solution C was added thereto, the plate was set to the microplate reader SpectraMax190 (manufactured by Molecular Devices Corporation), and incubated at 37° C. for 5 minutes. Separately, 0.05 μg (or 0.005 μg) of chymase (recombinant, manufactured by SIGMA) was diluted in solution C to obtain a 40 μL chymase solution, and incubated at 37° C. for 5 minutes. The chymase solution was added to the mixture of the nucleic acid and substrate to initiate an enzyme reaction. The final chymase concentration in the reaction mixture was 16.7 nM (or 1.67 nM), the final substrate concentration being 100 μM. The plate containing the reaction mixture was set to the microplate reader SpectraMax190 (manufactured by Molecular Devices Corporation), and examined for time-dependent changes in the fluorescence intensity at 37° C. for 5 minutes (or 30 minutes) (excitation wavelength 380 nm, detection wavelength 460 nm). A linear approximation of the increase in the fluorescence of the AMC released from the substrate by chymase activity was generated, and its slope was taken as the initial velocity […]. For control, samples were treated and analyzed in the same manner in two cases: use of a 30N or 40N (a nucleotide of 30 or 40 consecutive bases represented by N; N is A, G, C or T) nucleic acid pool (negative control), and use of chymostatin, a known chymotrypsin-like serine protease inhibitor (positive control). Taking the initial reaction velocity without the nucleic acid and inhibitor (V_0) as a 100% enzyme activity, the inhibitory rate of each test substance was calculated using the following equation: […]

[3] = target: T3, chymase (recombinant, manufactured by SIGMA) (Homo sapiens, UniProt P23946); experiment: Chymase inhibitory activity using synthetic substrate Suc-Ala-Ala-Pro-Phe-MCA; type: biochemical; settings: Table 3; substrate 100 μM, solution C, 37° C.; mean value for 2 to 3 measurements
T3 construct: purchased SIGMA; host or cells: yeast
T3 sequence (P23946 22-247): T1 sequence (P23946 22-247)
How it was run: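 Human recombinant chymase (16.7 nM or 1.67 nM final) preincubated 5 min at 37° C., then added to nucleic acid (0.0027–2 μM serial dilutions) and 100 μM substrate in solution C. AMC fluorescence (ex 380/em 460 nm) followed 5 or 30 min at 37° C.; slope gives initial velocity, inhibition versus no-inhibitor control yields IC50.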

chymase [4] = target: T1, chymase; experiment: Surface plasmon resonance (Biacore T100), aptamer immobilized on SA chip, chymase injected as analyte; type: binding; set-up: key: ++: a sequence that binds to chymase significantly more strongly than the negative control 30N; settings: Table 2; same manner as Example 1, running buffer solution C; compared with 30N
Description: as §1, §2, §3

chymase (recombinant) [5] = target: T2, chymase (recombinant); experiment: inhibition; SPR ++; settings: tags: SIGMA, expressed in yeast
Description: as §4
The chymase inhibitory activity was measured in the same manner as in Example 3.

B1: GGGACGGUAGGAAUUCGUCCUCAUGUCUAUUUUGCAGAUAGACUUAAAGCAAACAUAGAAGAGCGGCCGC (nucleic acid)
chain: rGrGrGrAfCrGrGfUrArGrGrArAfUfUfCrGfUfCfCfUfCrAfUrGfUfCfUrAfUfUfUfUrGfCrArGrAfUrArGrAfCfUfUrArArArGfCrArArAfCrAfUrArGrArArGrArGfCrGrGfCfCrGfC
Binding activity as determined using Biacore (chymase [1]): equivalent binding activity compared with 40N

B2: SEQ 41 (ssRNA)
RNA: GGGAGCAGGAGAGAGGUCAGAUGGUGAGAUAGAGUUAAACACCACAAUAGUAGCCUAUGCGUGCUAGUGUGA
modifications: 2'-F pyrimidines
IC50 (chymase (recombinant) [2]): 60 nM

B3: 41 (nucleic acid)
chain: B2 RNA
modifications: aptamer; 2'-fluoro at CU, RNA at AG, backbone not given here
IC50 [3]: 60 ± 17 nM
Binding activity as determined using Biacore (chymase [4]): ++

B4: GGGACGGUAGGAAUUCGUCCAUUCUACAGAUAGAGAUAAAGUAGAAUUUAACAAAACAUAGAAGAGCGGCCGC (nucleic acid)
chain: rGrGrGrAfCrGrGfUrArGrGrArAfUfUfCrGfUfCfCrAfUfUfCfUrAfCrArGrAfUrArGrArGrAfUrArArArGfUrArGrArAfUfUfUrArAfCrArArArAfCrAfUrArGrArArGrArGfCrGrGfCfCrGfC
Binding activity as determined using Biacore (chymase [1]): higher binding activity than 40N

B5: SEQ 48 (ssRNA)
RNA: GGGAGCAGGAGAGAGGUCAGAUGUGAAGAUAGAGAUAAAUCACAUACAGUCGGCCUAUGCGUGCUAGUGUGA
modifications: 2'-F pyrimidines
IC50 (chymase (recombinant) [2]): 95 nM

B6: 72(1) (mixed)
mixed: GGGTTAGAUAGAGTUAAAAACCC
modifications: idT-G(M)G(M)G(M)ttAG(M)aU(F)A(M)GAG(M)tU(F)A(M)A(M)A(M)A(M)A(M)ccc-idT (lower case DNA)
IC50 (chymase (recombinant) [5]): 13 nM

B7: SEQ 43 (ssRNA)
RNA: GGGAGCAGGAGAGAGGUCAGAUGAUGCCAAGAUAGAUUUAAAUGGCGUUUGGGCCUAUGCGUGCUAGUGUGA
modifications: 2'-F pyrimidines
IC50 (chymase (recombinant) [2]): 81 nM

B8: SEQ 44 (ssRNA)
RNA: GGGAGCAGGAGAGAGGUCAGAUGUUAGACCAAAGCAUAGGAGAUAGAGUUAAACCUAUGCGUGCUAGUGUGA
modifications: 2'-F pyrimidines
IC50 (chymase (recombinant) [2]): 49 nM

B9: GGGACGGUAGGAAUUCGUCCCUCUUGUCUAUUUUGCAGAUAGACUUAAAGCAAACAUAGAAGAGCGGCCGC (nucleic acid)
chain: rGrGrGrAfCrGrGfUrArGrGrArAfUfUfCrGfUfCfCfCfUfCfUfUrGfUfCfUrAfUfUfUfUrGfCrArGrAfUrArGrAfCfUfUrArArArGfCrArArAfCrAfUrArGrArArGrArGfCrGrGfCfCrGfC
Binding activity as determined using Biacore (chymase [1]): higher binding activity than 40N

B10: SEQ 40 (ssRNA)
RNA: GGGAGCAGGAGAGAGGUCAGAUGAACGGAUAGAGCUAAGAGUUCGUCAGAGGGGCCUAUGCGUGCUAGUGUGA
modifications: 2'-F pyrimidines
IC50 (chymase (recombinant) [2]): 140 nM

B11: SEQ 42 (ssRNA)
RNA: GGGAGCAGGAGAGAGGUCAGAUGCGUGAUCGUGCAAGGCGGAUAGAGUUAAGGCCUAUGCGUGCUAGUGUGA
modifications: 2'-F pyrimidines
IC50 (chymase (recombinant) [2]): 124 nM

B12: 56(31) (ssRNA)
RNA: GGGUUAGAUAGAGUUAAAAACCC
modifications: idT-G(M)G(M)G(M)U(F)U(F)AG(M)AU(F)A(M)GAG(M)U(F)U(F)A(M)A(M)A(M)A(M)A(M)C(F)C(F)C(F)-idT (M=2'-OMe, F=2'-F)
IC50 (chymase (recombinant) [5]): 23 nM

B13: SEQ 72 (mixed)
mixed: GGGTTAGAUAGAGTUAAAAACCC
modifications: idT-G(M)G(M)G(M)ttAG(M)A(M)U(F)A(M)GAG(M)tU(F)A(M)A(M)A(M)A(M)A(M)ccc-idT (lower case DNA)
IC50 (chymase (recombinant) [5]): 20 nM
